Consider two molecules from patent publication US20240100176A1 (Eli Lilly, published 2024).

What is called EC50 is the concentration giving half of the maximal effect.

For assay [1], the target named is T1, hexahistidine-tagged human IL-4Rα extracellular domain (human, UniProt P24394 26-232).
T1 construct: In the MSD assay the plate coat is the His-tagged ECD; also called human IL-4Rα ECD; Wild type receptor; not shown: hexahistidine tag
T1 sequence: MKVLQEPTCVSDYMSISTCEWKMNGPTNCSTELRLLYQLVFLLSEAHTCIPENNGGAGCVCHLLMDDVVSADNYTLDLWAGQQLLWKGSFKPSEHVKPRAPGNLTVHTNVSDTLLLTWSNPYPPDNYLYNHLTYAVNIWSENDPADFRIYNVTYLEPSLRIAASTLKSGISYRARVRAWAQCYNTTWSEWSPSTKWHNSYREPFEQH
The experiment in a line: competition MSD ELISA (solution equilibrium, 37 °C), apparent KD, single experiment. How it is done: (§1) Example 3a. […] A 96-well multi-array plate (Meso Scale Diagnostics, Cat. #L15XA-3) was coated at 4° C. overnight with 0.5 μg/mL hexahistidine-tagged human or cynomolgus monkey IL-4Rα ECD in phosphate buffered saline (PBS). Following coating, plates were washed 10 times with 200 μL PBST (PBS with 0.05% Tween® 20) and blocked with 300 μL/well of PBS casein blocking buffer (Pierce, Cat. #37528) at 37° C. for 1 hour. Plates were then washed 10 times as above, and 50 μL of the preincubated antibody:IL-4Rα dilution series was transferred to the wells and incubated at 37° C. with 300 rpm shaking for […]. Plates were washed 10 times with PBST, 50 μL of 1 μg/mL anti-human antibody sulfo-tag 20 (Meso Scale Diagnostics, Cat. #R32AJ-1) was added to the plates for the assay of Table 7a, and anti-Human NHP Kappa Light chain SULFO-TAG 20 (Meso Scale Diagnostics, Cat #D20TF-6) was added to the plates for the assay of Table 7b, and plates were incubated at 37° C. with 300 rpm shaking for 30 minutes. Plates were washed 10 times with PBST, 150 μL/well of 1× Read Buffer T was added to the wells and analyzed on a SECTOR® Imager 6000 (Meso Scale Diagnostics) 15 min after buffer addition. The apparent KD is determined by fitting a sigmoidal curve to the electrochemiluminescence (ECL) response vs. log (soluble IL-4Rα concentration) using GraphPad Prism 9. Data is graphed with normalized ECL values.
Background: An ELISA detects its analyte on a solid surface through an enzyme-linked reagent.

Assay [2] deals with T2, hexahistidine-tagged cynomolgus monkey IL-4Rα extracellular domain (cynomolgus monkey, UniProt P24394 26-231 (human entry)).
T2 construct: also called cynomolgus monkey IL-4Rα ECD; not shown: hexahistidine tag
T2 chain: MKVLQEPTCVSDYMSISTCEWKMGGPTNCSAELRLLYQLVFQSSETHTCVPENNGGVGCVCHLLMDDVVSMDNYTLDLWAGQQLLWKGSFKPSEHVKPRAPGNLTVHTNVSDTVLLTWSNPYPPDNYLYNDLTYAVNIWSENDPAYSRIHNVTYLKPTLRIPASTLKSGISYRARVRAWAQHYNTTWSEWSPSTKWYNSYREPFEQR
The description is as above. How it is done: as §1

The target in assay [3] is T3, human IL-4Rα on cells (human PBMC B cells and CD4+ T cells, Daudi cells, HEK-Blue IL-4/IL-13 cells, myeloid … (human, UniProt P24394 26-825)).
T3 sequence: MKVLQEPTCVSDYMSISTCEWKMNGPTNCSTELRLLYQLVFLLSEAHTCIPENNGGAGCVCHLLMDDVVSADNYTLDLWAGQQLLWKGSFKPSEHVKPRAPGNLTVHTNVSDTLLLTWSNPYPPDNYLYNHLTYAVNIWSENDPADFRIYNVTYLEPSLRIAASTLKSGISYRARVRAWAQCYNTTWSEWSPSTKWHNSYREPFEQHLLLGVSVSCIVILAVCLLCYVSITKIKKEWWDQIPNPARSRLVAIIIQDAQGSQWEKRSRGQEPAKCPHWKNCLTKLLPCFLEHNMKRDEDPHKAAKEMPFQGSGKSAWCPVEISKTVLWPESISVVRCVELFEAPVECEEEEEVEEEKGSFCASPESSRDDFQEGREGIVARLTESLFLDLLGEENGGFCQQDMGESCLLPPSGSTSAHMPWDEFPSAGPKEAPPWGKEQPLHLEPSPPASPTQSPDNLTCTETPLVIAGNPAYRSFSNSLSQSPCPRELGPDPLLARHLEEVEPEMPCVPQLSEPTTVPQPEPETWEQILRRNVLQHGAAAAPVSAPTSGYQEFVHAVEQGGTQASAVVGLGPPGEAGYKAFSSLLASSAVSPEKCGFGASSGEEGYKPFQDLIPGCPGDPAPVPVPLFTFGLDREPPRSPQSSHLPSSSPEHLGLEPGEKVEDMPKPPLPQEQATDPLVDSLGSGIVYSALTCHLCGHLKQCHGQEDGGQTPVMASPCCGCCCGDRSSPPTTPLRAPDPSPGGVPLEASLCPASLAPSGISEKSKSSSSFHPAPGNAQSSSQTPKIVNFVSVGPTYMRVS
The experiment in a line: flow cytometry on human PBMCs, CD20 B cells, Alexa Fluor 647 labelled antibody, percent IL-4Rα positive cells. On the procedure:
Example 3b. Binding to B cells and T cells: Binding of the exemplified anti-human IL-4Rα antibodies to B cells and T cells was tested in a Fluorescence Activated Cell Sorting (FACS) assay. […] Freshly isolated cells PBMCs were resuspended at 2×10⁶ cells/mL and allowed to rest for 15 minutes at room temperature, then plated at 100 μL/well into a round bottom 96-well plate (COSTAR®) and washed with FACS buffer (PBS containing 2% fetal bovine serum from Corning®). Exemplified anti-human IL-4Rα antibodies and the respective control IgG antibodies conjugated to Alexa Fluor® 647 according to manufacturer's protocol (Thermo Fisher Scientific) were added to the wells at 66.67 nM and diluted 4-fold in duplicate. Equivalent volume of 2× antibody cocktail containing: Human TruStain FcX™. FITC anti-human CD3 Antibody, Alexa Fluor® 700 anti-human CD4 Antibody (all from Biolegend®) and CD20 Monoclonal Antibody (2H7), PerCP-Cyanine5.5 (Thermo Fisher Scientific) was then added to the wells. Cells were incubated at 4° C. for 30 minutes, washed twice with FACS buffer and resuspended in a final volume of 100 μL FACS buffer. Viability dye, Sytox™ blue (Thermo Fisher Scientific), was added and the samples were analyzed via a flow cytometer (LSRFortessa™ X-20; BD BIOSCIENCES). Data analysis was performed using FlowJo software and statistical analysis was performed using GraphPad Prism 9. […]
Background: In flow cytometry, cells or beads pass a laser one at a time.

For assay [4], the target named is T2, hexahistidine-tagged cynomolgus monkey …. Put plainly: competition MSD ELISA (solution equilibrium, 37 °C), apparent KD, mean of 3 experiments. On the procedure:
as §1

B1: anti-human IL-4Rα antibody Ab1 (antibody, human IgG4 S228P, kappa)
heavy: QVQLVESGGGLVQPGGSLRLSCVASGFTFSHSSMNWVRQAPGKGLEWVSYISRATGAVYYADSVKGRFTISRDNAKNSLYLQMNSLRDEDTAVYYCAREPVFDYWGQGTLVTVSSASTKGPCVFPLAPCSRSTSESTAALGCLVKDYFPEPVTVSWNSGALTSGVHTFPAVLQSSGLYSLSSVVTVPSSSLGTKTYTCNVDHKPSNTKVDKRVESKYGPPCPPCPAPEFLGGPSVFLFPPKPKDTLMISRTPEVTCVVVDVSQEDPEVKFNWYVDGVEVHNAKTKPREEQFNSTYRVVSVLTVLHQDWLNGKEYKCKVSNKGLPSSIEKTISKAKGQPREPQVYTLPPSREEMTKNQVSLTCLVKGFYPSDICVEWESNGQPENNYKTTPPVLDSDGSFFLYSRLTVDKSRWQQGNVFSCSVMHEALHNHYTQKSLSLSLG
light: DIQMTQSPSAMSASVGDRVTITCRASQDISNYLAWFQQKPGKVPTRLIYAASSLQSGVPSRFSGSGSGTEFTLTISSLQPEDFATYYCLQWSSYPRTFGQGTKVEIKRTVAAPSVFIFPPSDEQLKSGTASVVCLLNNFYPREAKVQWKVDNALQSGNSQESVTEQDSKDSTYSLSSTLTLSKADYEKHKVYACEVTHQGLSSPVTKSFNRGEC
notes: human kappa light chain; also called anti-human IL-4Rα Ab1; unconjugated Ab1
In the case of B1, the Kd in assay [1] amounted to 0.0208 nM; in assay [2], 0.0233 nM. Also, the EC50 in assay [3] came to 0.15 nM.

B2: anti-human IL-4Rα Ab1 GC conjugate of Example 1b (n=4) (antibody, human IgG4 S228P, kappa)
heavy: B1 heavy
light: B1 light
modifications: glucocorticoid receptor agonist payload-linker (GC-L, Preparation 8) conjugated to the engineered cysteines at the 124 and 378 position of the heavy chain (EU numbering); n is 4 (average DAR 4.17 by RP-HPLC, 3.85 by TOF MS)
As to B2, the Kd in assay [4] worked out at 0.0458 nM.
